Assay results reported in article PMC2855332.

Target: ovine PrP (VRQ allele), PrP^Sc aggregates from brains of prion-infected tg338 mice (sheep) (UniProt P23907)

ovine PrP (VRQ allele), PrP^Sc aggregates from brains of prion-infected tg338 mice (from UniProt P23907 25-233) (natural protein)
stoichiometry N: 12 to 30 PrP monomers
